Test results taken from patent US20260176331A1.
pKd: −log10 of the molar value.

Assays:
[1] = target: human FcγRIIβ on CHOK1 cells (human) (UniProt P31994); experiment: ratio of flow cytometry EC50s, reference FcγRIIα (R131) on CHOK1 cells
Hu FcgRIIA_R167 (human) = Hu FcgRIIA_R167 (human) (UniProt P12318); experiment: kinetics, antibody captured on protein A/G chip, FcγR injected as analyte
Hu FcγRIIβ (human) = Hu FcγRIIβ (human) (UniProt P31994); experiment: as above

Chain of UniProt P12318 (P12318 36-218 H167R limits assumed): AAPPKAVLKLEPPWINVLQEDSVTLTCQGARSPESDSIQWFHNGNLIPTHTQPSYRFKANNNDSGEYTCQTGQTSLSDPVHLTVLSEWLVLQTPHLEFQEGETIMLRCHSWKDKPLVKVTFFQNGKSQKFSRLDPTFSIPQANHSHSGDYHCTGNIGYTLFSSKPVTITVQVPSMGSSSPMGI

IIa/IIb (ratio of EC50) [1]: 77.8
Fold (KD(IgG WT)/KD(variants)) (Hu FcgRIIA_R167 (human)): < 0.3 fold
pKd (Hu FcgRIIA_R167 (human)): < 5.30
Fold (KD(IgG WT)/KD(variants)) (Hu FcγRIIβ (human)): 3.18 fold
Substance: IgG1 P238D (antibody)
